# From patent US20200283478A1 (Genentech, published 2020)
# Values joined by “and” are separate entries in the source; they are usually repeats but may differ in a detail not shown here. Equal entries are not always repeated. Numbered stars: 1 amine (or outer) side, 2 acyl side, 3 side chain; on linkers, the order of the positions; unused ones are H or OH. Bridge positions count the residues as written; N and C are the ends. Square brackets hold non-standard residues; d marks the D form. NH(CH2)9CO = O=C(CCCCCCCCCN[*:1])[*:2]; NH(CH2)8CO = O=C(CCCCCCCCN[*:1])[*:2]; Cit = NC(=O)NCCC[C@H](N)C(=O)O; Aoc = NCCCCCCCC(=O)O; Ava = NCCCCC(=O)O
# Assays:
# [1] = biological target: T1, His-tagged, full-length PCSK9 (human, UniProt Q8NBP7 31-692); assay: TR-FRET competition (PCSK9/EGF(A) assay); competitor EGF(A)-Fc;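 also: proximity signal from anti-His APC on PCSK9 paired with anti-Fc europium on the Fc ligand, read as normalized TR-FRET ratio across compound dilutions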
# T1 construct: secreted PCSK9 is autocatalytically cleaved into prodomain and catalytic domain + CRD (from S153), which stay associated; also called His-PCSK9; proprotein convertase subtilisin/kexin type 9; not shown: His tag
# T1 sequence (Q8NBP7 31-692 limits assumed): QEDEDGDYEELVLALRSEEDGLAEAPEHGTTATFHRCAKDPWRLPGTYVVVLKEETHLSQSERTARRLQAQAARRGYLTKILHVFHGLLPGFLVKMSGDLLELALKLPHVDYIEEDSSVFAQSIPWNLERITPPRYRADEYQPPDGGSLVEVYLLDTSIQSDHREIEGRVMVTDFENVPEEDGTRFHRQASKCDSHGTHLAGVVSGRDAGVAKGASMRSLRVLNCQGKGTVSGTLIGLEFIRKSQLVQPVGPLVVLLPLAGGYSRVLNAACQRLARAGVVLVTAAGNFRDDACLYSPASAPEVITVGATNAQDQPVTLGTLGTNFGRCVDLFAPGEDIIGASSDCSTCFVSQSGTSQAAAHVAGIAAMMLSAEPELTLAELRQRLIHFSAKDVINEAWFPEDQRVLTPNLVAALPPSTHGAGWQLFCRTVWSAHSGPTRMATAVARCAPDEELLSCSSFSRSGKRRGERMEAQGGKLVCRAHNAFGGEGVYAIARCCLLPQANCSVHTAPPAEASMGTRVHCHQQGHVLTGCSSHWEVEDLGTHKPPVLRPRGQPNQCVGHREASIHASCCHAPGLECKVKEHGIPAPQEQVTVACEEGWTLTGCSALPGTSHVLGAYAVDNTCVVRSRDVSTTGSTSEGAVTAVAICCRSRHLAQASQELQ
# [2] = biological target: T2, His-tagged PCSK9Δhelix (human, UniProt Q8NBP7 31-152; Q8NBP7 168-692); assay: TR-FRET competition (PCSK9Δhelix/Ab20 assay); competitor Ab20
# T2 construct: Human PCSK9 M1-Q692 with an engineered TEV site, cut by TEV protease; new N-terminus of the catalytic domain is S-A168; also called His-PCSK9Δhelix; not shown: His tag
# T2 sequence (Q8NBP7 31-152, stated change not applied, chain 1 of 2): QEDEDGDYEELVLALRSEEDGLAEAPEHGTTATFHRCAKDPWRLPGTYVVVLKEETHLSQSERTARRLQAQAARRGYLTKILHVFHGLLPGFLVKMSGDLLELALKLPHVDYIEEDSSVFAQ
# T2 sequence (Q8NBP7 other isoform, or with tags, fused parts or gaps mutant, chain 2 of 2): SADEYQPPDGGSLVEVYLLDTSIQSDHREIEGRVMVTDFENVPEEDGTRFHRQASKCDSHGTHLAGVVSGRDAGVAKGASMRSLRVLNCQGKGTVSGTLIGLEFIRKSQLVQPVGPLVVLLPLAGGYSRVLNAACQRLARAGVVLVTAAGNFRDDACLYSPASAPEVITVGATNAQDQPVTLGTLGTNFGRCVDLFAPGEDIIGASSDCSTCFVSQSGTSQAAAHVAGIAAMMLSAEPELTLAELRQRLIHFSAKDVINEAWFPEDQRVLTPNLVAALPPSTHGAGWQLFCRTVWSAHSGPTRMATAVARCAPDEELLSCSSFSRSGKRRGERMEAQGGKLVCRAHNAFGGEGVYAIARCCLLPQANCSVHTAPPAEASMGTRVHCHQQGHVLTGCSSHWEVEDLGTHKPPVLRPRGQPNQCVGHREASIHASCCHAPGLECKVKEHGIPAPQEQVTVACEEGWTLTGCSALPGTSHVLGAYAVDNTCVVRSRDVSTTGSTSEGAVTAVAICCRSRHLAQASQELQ
Binder,IC50 [1],IC50 [2] [µM]
Ac-SGCFIPWNLQRIGLLC-NH2 (disulfide 3-16; SMILES CC[C@H](C)[C@@H]1NC(=O)[C@H](CCCNC(=N)N)NC(=O)[C@H](CCC(N)=O)NC(=O)[C@H](CC(C)C)NC(=O)[C@H](CC(N)=O)NC(=O)[C@H](Cc2c[nH]c3ccccc23)NC(=O)[C@@H]2CCCN2C(=O)[C@H]([C@@H](C)CC)NC(=O)[C@H](Cc2ccccc2)NC(=O)[C@@H](NC(=O)CNC(=O)[C@H](CO)NC(C)=O)CSSC[C@@H](C(N)=O)NC(=O)[C@H](CC(C)C)NC(=O)[C@H](CC(C)C)NC(=O)CNC1=O) [Compound 29 (Ac-SG-CFIPWNLQRIGLLC-NH2)],> 50 µM,1.9
Ac-SGCRLPWNLQRIGLPC-NH2 (disulfide 3-16) [Compound 30 (Ac-SG-CRLPWNLQRIGLPC-NH2)],> 50 µM,0.95
Ac-CFIPWNLQRIGLLC-NH2 (disulfide 1-14; SMILES CC[C@H](C)[C@@H]1NC(=O)[C@H](CCCNC(=N)N)NC(=O)[C@H](CCC(N)=O)NC(=O)[C@H](CC(C)C)NC(=O)[C@H](CC(N)=O)NC(=O)[C@H](Cc2c[nH]c3ccccc23)NC(=O)[C@@H]2CCCN2C(=O)[C@H]([C@@H](C)CC)NC(=O)[C@H](Cc2ccccc2)NC(=O)[C@@H](NC(C)=O)CSSC[C@@H](C(N)=O)NC(=O)[C@H](CC(C)C)NC(=O)[C@H](CC(C)C)NC(=O)CNC1=O) [Compound 31 (Ac-CFIPWNLQRIGLLC-NH2)],> 50 µM,2.4
Ac-CRLPWNLQRIGLPC-NH2 (disulfide 1-14; SMILES CC[C@H](C)[C@@H]1NC(=O)[C@H](CCCNC(=N)N)NC(=O)[C@H](CCC(N)=O)NC(=O)[C@H](CC(C)C)NC(=O)[C@H](CC(N)=O)NC(=O)[C@H](Cc2c[nH]c3ccccc23)NC(=O)[C@@H]2CCCN2C(=O)[C@H](CC(C)C)NC(=O)[C@H](CCCNC(=N)N)NC(=O)[C@@H](NC(C)=O)CSSC[C@@H](C(N)=O)NC(=O)[C@@H]2CCCN2C(=O)[C@H](CC(C)C)NC(=O)CNC1=O) [Compound 32 (Ac-CRLPWNLQRIGLPC-NH2)],> 50 µM,0.97
Ac-CRLPWNLKRIGLPC-NH2 (disulfide 1-14; SMILES CC[C@H](C)[C@@H]1NC(=O)[C@H](CCCNC(=N)N)NC(=O)[C@H](CCCCN)NC(=O)[C@H](CC(C)C)NC(=O)[C@H](CC(N)=O)NC(=O)[C@H](Cc2c[nH]c3ccccc23)NC(=O)[C@@H]2CCCN2C(=O)[C@H](CC(C)C)NC(=O)[C@H](CCCNC(=N)N)NC(=O)[C@@H](NC(C)=O)CSSC[C@@H](C(N)=O)NC(=O)[C@@H]2CCCN2C(=O)[C@H](CC(C)C)NC(=O)CNC1=O) [Compound 67 (Ac-CRLPWNLKRIGLPC-NH2)],> 50 µM,0.699
Ac-CRLPWNLQR[NH(CH2)9CO]C-NH2 (disulfide 1-11; SMILES CC(=O)N[C@H]1CSSC[C@@H](C(N)=O)NC(=O)CCCCCCCCCNC(=O)[C@H](CCCNC(=N)N)NC(=O)[C@H](CCC(N)=O)NC(=O)[C@H](CC(C)C)NC(=O)[C@H](CC(N)=O)NC(=O)[C@H](Cc2c[nH]c3ccccc23)NC(=O)[C@@H]2CCCN2C(=O)[C@H](CC(C)C)NC(=O)[C@H](CCCNC(=N)N)NC1=O) [Compound 84 (Ac-CRLPWNLQR-(Ade)-C-NH2)],> 50 µM,–
Ac-CRLPWNLQR[NH(CH2)8CO]C-NH2 (disulfide 1-11; SMILES CC(=O)N[C@H]1CSSC[C@@H](C(N)=O)NC(=O)CCCCCCCCNC(=O)[C@H](CCCNC(=N)N)NC(=O)[C@H](CCC(N)=O)NC(=O)[C@H](CC(C)C)NC(=O)[C@H](CC(N)=O)NC(=O)[C@H](Cc2c[nH]c3ccccc23)NC(=O)[C@@H]2CCCN2C(=O)[C@H](CC(C)C)NC(=O)[C@H](CCCNC(=N)N)NC1=O) [Compound 85 (Ac-CRLPWNLQR-(Ano)-C-NH2)],> 50 µM,–
Ac-CRLPWNLQR[Aoc]C-NH2 (disulfide 1-11; SMILES CC(=O)N[C@H]1CSSC[C@@H](C(N)=O)NC(=O)CCCCCCCNC(=O)[C@H](CCCNC(=N)N)NC(=O)[C@H](CCC(N)=O)NC(=O)[C@H](CC(C)C)NC(=O)[C@H](CC(N)=O)NC(=O)[C@H](Cc2c[nH]c3ccccc23)NC(=O)[C@@H]2CCCN2C(=O)[C@H](CC(C)C)NC(=O)[C@H](CCCNC(=N)N)NC1=O) [Compound 86 (Ac-CRLPWNLQR-(Aoc)-C-NH2)],> 50 µM,–
Ac-CRLPWNLQRI[Ava]C-NH2 (disulfide 1-12; SMILES CC[C@H](C)[C@@H]1NC(=O)[C@H](CCCNC(=N)N)NC(=O)[C@H](CCC(N)=O)NC(=O)[C@H](CC(C)C)NC(=O)[C@H](CC(N)=O)NC(=O)[C@H](Cc2c[nH]c3ccccc23)NC(=O)[C@@H]2CCCN2C(=O)[C@H](CC(C)C)NC(=O)[C@H](CCCNC(=N)N)NC(=O)[C@@H](NC(C)=O)CSSC[C@@H](C(N)=O)NC(=O)CCCCNC1=O) [Compound 115 (Ac-CRLPWNLQRI-(Ape)-C-NH2)],> 50 µM,–
Ac-SGCFIPWNLQ[Cit]IGLPC-NH2 (disulfide 3-16; SMILES CC[C@H](C)[C@@H]1NC(=O)[C@H](CCCNC(N)=O)NC(=O)[C@H](CCC(N)=O)NC(=O)[C@H](CC(C)C)NC(=O)[C@H](CC(N)=O)NC(=O)[C@H](Cc2c[nH]c3ccccc23)NC(=O)[C@@H]2CCCN2C(=O)[C@H]([C@@H](C)CC)NC(=O)[C@H](Cc2ccccc2)NC(=O)[C@@H](NC(=O)CNC(=O)[C@H](CO)NC(C)=O)CSSC[C@@H](C(N)=O)NC(=O)[C@@H]2CCCN2C(=O)[C@H](CC(C)C)NC(=O)CNC1=O) [Compound 36 (Ac-SG-CFIPWNLQ(Cit)IGLPC-NH2)],> 50 µM,–
Ac-DCLWNLKRIGSQCEY-NH2 (disulfide 2-13; SMILES CC[C@H](C)[C@@H]1NC(=O)[C@H](CCCNC(=N)N)NC(=O)[C@H](CCCCN)NC(=O)[C@H](CC(C)C)NC(=O)[C@H](CC(N)=O)NC(=O)[C@H](Cc2c[nH]c3ccccc23)NC(=O)[C@H](CC(C)C)NC(=O)[C@@H](NC(=O)[C@H](CC(=O)O)NC(C)=O)CSSC[C@@H](C(=O)N[C@@H](CCC(=O)O)C(=O)N[C@@H](Cc2ccc(O)cc2)C(N)=O)NC(=O)[C@H](CCC(N)=O)NC(=O)[C@H](CO)NC(=O)CNC1=O) [Compound 64 (Ac-DCLWNLKRIGSQCEY-NH2)],> 50 µM,–
Ac-CWNLKRIGSQGC-NH2 (disulfide 1-12; SMILES CC[C@H](C)[C@@H]1NC(=O)[C@H](CCCNC(=N)N)NC(=O)[C@H](CCCCN)NC(=O)[C@H](CC(C)C)NC(=O)[C@H](CC(N)=O)NC(=O)[C@H](Cc2c[nH]c3ccccc23)NC(=O)[C@@H](NC(C)=O)CSSC[C@@H](C(N)=O)NC(=O)CNC(=O)[C@H](CCC(N)=O)NC(=O)[C@H](CO)NC(=O)CNC1=O) [Compound 21 (Ac-CWNLKRIGSQGC-NH2)],> 50 µM,–
Ac-GSGCWNLKRIGSQGC-NH2 (disulfide 4-15; SMILES CC[C@H](C)[C@@H]1NC(=O)[C@H](CCCNC(=N)N)NC(=O)[C@H](CCCCN)NC(=O)[C@H](CC(C)C)NC(=O)[C@H](CC(N)=O)NC(=O)[C@H](Cc2c[nH]c3ccccc23)NC(=O)[C@@H](NC(=O)CNC(=O)[C@H](CO)NC(=O)CNC(C)=O)CSSC[C@@H](C(N)=O)NC(=O)CNC(=O)[C@H](CCC(N)=O)NC(=O)[C@H](CO)NC(=O)CNC1=O) [Compound 22 (Ac-GSG-CWNLKRIGSQGC-NH2)],42 µM and > 50 µM,–
